The source of these data is US8889621B2, “Inhibiting binding of FGF23 to the binary FGFR-Klotho complex for the treatment of hypophosphatemia” (New York University, priority 2009, dated 2014).

One experiment deals with Hyp mice. Description: Urine and serum phosphate in Hyp mice after IP injection. Type of experiment: in vivo, mouse. To be noted: vs vehicle; for serum phosphate: IP, FGF23^180-251 1 mg or FGF23^180-205 860 μg. An excerpt:
The anti-phosphaturic activity of FGF23 C-terminal peptides was examined in normal Sprague-Dawley rats and in Hyp mice, a mouse model of human X-linked hypophosphatemia (XLH) (Beck et al., “Pex/PEX Tissue Distribution and Evidence for a Deletion in the 3′ Region of the Pex Gene in X-linked Hypophosphatemic Mice,” J Clin Invest 99(6):1200-1209 (1997), Eicher et al., “Hypophosphatemia: Mouse Model for Human Familial Hypophosphatemic (Vitamin D-resistant) Rickets,” Proc Natl Acad Sci USA 73(12):4667-4671 […], Strom et al., “Pex Gene Deletions in Gy and Hyp Mice Provide Mouse Models for X-linked Hypophosphatemia,” Hum Mol Genet. 6(2):165-171 (1997), which are hereby incorporated by reference in their entirety). The animals were fed a complete, fixed formula diet containing 0.94% phosphate. Anesthetized rats (220-250 g body weight) were administered IV either FGF23^28-251 (0.1 μg kg body weight^−1) or FGF23^180-251 (0.1 μg kg body weight^−1) or vehicle. Before and 3 h after the injection, blood was drawn from the carotid artery and urine was collected through bladder catheterization. Plasma and urine chemistry of animals were analyzed using Vitros Chemistry Analyzer (Ortho-Clinical Diagnosis). 10- to 15-week old Hyp mice were fasted for 8-12 h before administering IP either FGF23^180-251 (1 mg) or FGF23^180-205 (860 μg) or vehicle. Before and 2 h, 4 h, 8 h, and 24 h after the injection, urine and serum samples were collected. Phosphate concentrations in urine and serum were determined using Phosphorus Liqui-UV Test (Stanbio Laboratory), and urine creatinine levels were measured using DetectX™ Urinary Creatinine Detection Kit (LuminosAssays).

The test system of experiment [1] is tyrosine phosphorylation of FRS2α and downstream activation of MAP kinase cascade. Description: Phosphorylation of FRS2α and 44/42 MAP kinase in HEK293-Klotho cells. The format is cell-based. The following applies: for inhibition of FGF23-induced phosphorylation of FRS2α and MAP kinase activation: FGF23^28-251 1 nM, 10 min. As to the method: Subconfluent HEK293-Klotho cells (Kurosu et al., “Regulation of Fibroblast Growth Factor-23 Signaling by Klotho,” J Biol Chem 281(10):6120-6123 (2006), which is hereby incorporated by reference in its entirety) were serum starved for 16 h and then stimulated for 10 min with either FGF23^28-251 (0.33 to 10 nM) or FGF23^180-251 (0.76 to 76.3 nM). In parallel experiments, cells were stimulated with FGF23^28-251 (1 nM) alone or with FGF23^28-251 (1 nM) mixed with increasing concentrations of either FGF23^180-251 (0.76 to 76.3 nM) or FGF23^180-205 (0.1 to 10 μM). Cell stimulation with FGF2 (2.9 nM) alone or FGF2 (2.9 nM) mixed with increasing concentrations of FGF23^180-251 (0.76 to 76.3 nM) served as controls. Similarly, subconfluent cells of a CHO cell line stably expressing Klotho (Imura et al., “Secreted Klotho Protein in Sera and CSF: Implication for Post-translational Cleavage in Release of Klotho Protein from Cell Membrane,” FEBS Lett 565(1-3):143-147 (2004), which is hereby incorporated by reference in its entirety) were treated with either FGF23^28-251 (0.067 to 20 nM) or FGF23^28-200 (0.04 to 12 nM).
In a separate experiment, the biological activity of the bacterially expressed FGF23^28-251 protein was compared to that of FGF23^25-251 expressed in the mouse myeloma cell line NS0 (R&D Systems). Subconfluent HEK293-Klotho cells were serum starved, and then treated with either of the two FGF23 proteins.
After stimulation, the cells were lysed (Kurosu et al, “Suppression of Aging in Mice by the Hormone Klotho,” Science 309(5742):1829-1833 (2005), which is hereby incorporated by reference in its entirety), and cellular proteins were resolved on SDS-polyacrylamide gels, transferred to nitrocellulose membranes, and the protein blots were probed with antibodies to phosphorylated FGF receptor substrate-2α (FRS2α), phosphorylated 44/42 MAP kinase and non-phosphorylated 44/42 MAP kinase, and Klotho. Except for the anti-Klotho antibody (Kato et al., “Establishment of the Anti-Klotho Monoclonal Antibodies and Detection of Klotho Protein in Kidneys,” Biochemical Biophysical Res Communications 267(2):597-602 (2000), which is hereby incorporated by reference in its entirety), all antibodies were from Cell Signaling Technology.

“Also recorded” adds a separate entry of the source. Peptide text beside a SMILES is read from it.

With `CSCC[C@H](NC(=O)[C@H](CCCNC(=N)N)NC(=O)[C@H](C)NC(=O)[C@H](CCCNC(=N)N)NC(=O)[C@@H]1CCCN1C(=O)[C@H](CCCCN)NC(=O)[C@H](CC(C)C)NC(=O)[C@@H](NC(=O)[C@H](CC(N)=O)NC(=O)[C@H](CC(C)C)NC(=O)[C@@H]1CCCN1C(=O)[C@H](CC(=O)O)NC(=O)[C@H](CCCNC(=N)N)NC(=O)[C@H](CCC(=O)O)NC(=O)[C@H](CO)NC(=O)[C@H](CC(=O)O)NC(=O)[C@H](CC(=O)O)NC(=O)[C@H](CCC(=O)O)NC(=O)[C@H](C)NC(=O)[C@@H](N)CO)C(C)C)C(=O)N[C@H](C(=O)N1CCC[C@H]1C(=O)N[C@@H](C)C(=O)N1CCC[C@H]1C(=O)N[C@@H](C)C(=O)N[C@@H](CO)C(=O)O)[C@@H](C)O` [FGF23^180-205] (H-SAEDDSERDPLNVLKPRARMTPAPAS-OH; N-terminus and C-terminus assumed), the serum phosphate result in the experiment on Hyp mice is recorded as “increase”. Further, the “inhibition of FGF23-induced phosphorylation of FRS2α and MAP kinase activation” value in experiment [1] is reported as “inhibited, in a dose-dependent fashion”.

B1: FGF23^180-251: 72-amino acid C-terminal tail of human FGF23 (S180 to I251), expressed in E. coli (protein, listed as Homo sapiens)
chain: SAEDDSERDPLNVLKPRARMTPAPASCSQELPSAEDNSPMASDPLGVVRGGRVNTHAGGTGPEGCRPFAKFI
Consider B1, for which the renal phosphate excretion entry in the experiment on Hyp mice (IP 1 mg) is “decrease”. Besides, the serum phosphate entry with Hyp mice is “elevated”. Besides, the “inhibition of FGF2-induced phosphorylation of FRS2α and MAP kinase activation” value in experiment [1] (FGF2 2.9 nM) is reported as “failed to inhibit”. Besides, the “inhibition of FGF23-induced phosphorylation of FRS2α and MAP kinase activation” value in experiment [1] was “inhibited, in a dose-dependent fashion”. For the same molecule, the “FGFR activation (FRS2α and 44/42 MAP kinase phosphorylation as readouts)” value in experiment [1] (peptide alone / with FGF23) was “had no activity alone; also recorded: functioned as an antagonist”.
